{
  "source": "paper PMC7508890",
  "key": {"[1]": {"target": "recombinant hemagglutinin (HA) derived from A/Thailand/CU44/2006, wild type (influenza A virus A/Thailand/CU44/2006)", "assay": "[…]; 20 mM Tris-HCl pH 8.0, 100 mM NaCl"}, "[2]": {"target": "recombinant hemagglutinin (HA) derived from A/Thailand/CU44/2006, wild type (influenza A virus A/Thailand/CU44/2006)", "assay": "SEC-MALS"}},
  "data": [
    {"substance": "recombinant hemagglutinin (HA) derived from A/Thailand/CU44/2006, wild type (natural protein)", "values": [
      {"measurement": "stoichiometry N", "setting": "[1]", "value": 3},
      {"measurement": "stoichiometry N", "setting": "[2]", "value": 9, "unit": "HA trimers"}
    ]}
  ]
}
